Laboratory results from US20220048967A1 (published 2022).
Numbered stars: 1 amine (or outer) side, 2 acyl side, 3 side chain; on linkers, the order of the positions; unused ones are H or OH. Square brackets hold non-standard residues; d marks the D form. Side chains are listed from the residue outwards. Ends that are not written are not given here. * marks the point of attachment. C20 diacid = O=C(O)CCCCCCCCCCCCCCCCCCC(=O)*; αMePhe(2-F) = C[C@](N)(Cc1ccccc1F)C(=O)O; γGlu = O=C(O)[C@H](CCC(=O)[*:2])N[*:1]; αMeF = C[C@](N)(Cc1ccccc1)C(=O)O; AEEA = NCCOCCOCC(=O)O; Aib = CC(C)(N)C(=O)O

T1: human GIP receptor (human, UniProt P48546 22-466)
T1 sequence (looked up): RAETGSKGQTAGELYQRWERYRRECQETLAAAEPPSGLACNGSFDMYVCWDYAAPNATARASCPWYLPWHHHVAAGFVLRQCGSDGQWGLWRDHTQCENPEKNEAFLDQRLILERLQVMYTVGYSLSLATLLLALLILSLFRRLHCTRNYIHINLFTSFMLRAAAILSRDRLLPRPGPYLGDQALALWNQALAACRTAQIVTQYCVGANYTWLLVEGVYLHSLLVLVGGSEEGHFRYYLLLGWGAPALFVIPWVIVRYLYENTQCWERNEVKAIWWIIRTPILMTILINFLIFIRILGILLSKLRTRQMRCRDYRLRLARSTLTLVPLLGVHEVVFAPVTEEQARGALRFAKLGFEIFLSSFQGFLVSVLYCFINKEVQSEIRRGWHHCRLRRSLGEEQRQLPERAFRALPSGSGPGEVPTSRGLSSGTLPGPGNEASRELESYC


Legend:
human GIP receptor = target: T1, human GIP receptor; assay: cell-based or functional assay
human GLP-1 receptor = human GLP-1 receptor (human, UniProt P43220 24-463); assay: cell-based or functional assay

| Binder | hGIPR cAMP EC50 ratio (human GIP receptor) | hGIPR cAMP Rel EC50 (human GIP receptor) | hGLP1R cAMP EC50 ratio (human GLP-1 receptor) | hGLP1R cAMP Rel EC50 (human GLP-1 receptor) |
| --- | --- | --- | --- | --- |
| YXEGTXTSDYSILLDKIAQXAFIEYLIKGG (Aib2; αMeF6; Aib20; K28((2-[2-(2-Amino-ethoxy)-ethoxy]-acetyl)2-(γ-Glu)-CO-(CH2)18-CO2H); C-terminal NH2) [Example 95] | 0.145 | 1.17 nM | 0.0576 | 1.01 nM |
| Y[Aib]EGT[αMePhe(2-F)]TSDYSI[Aib]LDEK([AEEA-AEEA-γGlu-C20 diacid])AQ[Aib]AFIEYLIEGG-NH2 (N-terminus assumed; SMILES CC[C@H](C)[C@H](NC(=O)[C@H](CC(C)C)NC(=O)[C@H](Cc1ccc(O)cc1)NC(=O)[C@H](CCC(=O)O)NC(=O)[C@@H](NC(=O)[C@H](Cc1ccccc1)NC(=O)[C@H](C)NC(=O)C(C)(C)NC(=O)[C@H](CCC(N)=O)NC(=O)[C@H](C)NC(=O)[C@H](CCCCNC(=O)COCCOCCNC(=O)COCCOCCNC(=O)CC[C@H](NC(=O)CCCCCCCCCCCCCCCCCCC(=O)O)C(=O)O)NC(=O)[C@H](CCC(=O)O)NC(=O)[C@H](CC(=O)O)NC(=O)[C@H](CC(C)C)NC(=O)C(C)(C)NC(=O)[C@@H](NC(=O)[C@H](CO)NC(=O)[C@H](Cc1ccc(O)cc1)NC(=O)[C@H](CC(=O)O)NC(=O)[C@H](CO)NC(=O)[C@@H](NC(=O)[C@](C)(Cc1ccccc1F)NC(=O)[C@@H](NC(=O)CNC(=O)[C@H](CCC(=O)O)NC(=O)C(C)(C)NC(=O)[C@@H](N)Cc1ccc(O)cc1)[C@@H](C)O)[C@@H](C)O)[C@@H](C)CC)[C@@H](C)CC)C(=O)N[C@@H](CCC(=O)O)C(=O)NCC(=O)NCC(N)=O) [Example 101] | 2.07 | 0.0704 nM | 1.06 | 0.0579 nM |
| Y[Aib]EGT[αMeF]TSDYSILK([AEEA-AEEA-γGlu-C20 diacid])DKIAQ[Aib]AFIEYLIEGG-NH2 (N-terminus assumed; SMILES CC[C@H](C)[C@H](NC(=O)[C@H](CCCCN)NC(=O)[C@H](CC(=O)O)NC(=O)[C@H](CCCCNC(=O)COCCOCCNC(=O)COCCOCCNC(=O)CC[C@H](NC(=O)CCCCCCCCCCCCCCCCCCC(=O)O)C(=O)O)NC(=O)[C@H](CC(C)C)NC(=O)[C@@H](NC(=O)[C@H](CO)NC(=O)[C@H](Cc1ccc(O)cc1)NC(=O)[C@H](CC(=O)O)NC(=O)[C@H](CO)NC(=O)[C@@H](NC(=O)[C@](C)(Cc1ccccc1)NC(=O)[C@@H](NC(=O)CNC(=O)[C@H](CCC(=O)O)NC(=O)C(C)(C)NC(=O)[C@@H](N)Cc1ccc(O)cc1)[C@@H](C)O)[C@@H](C)O)[C@@H](C)CC)C(=O)N[C@@H](C)C(=O)N[C@@H](CCC(N)=O)C(=O)NC(C)(C)C(=O)N[C@@H](C)C(=O)N[C@@H](Cc1ccccc1)C(=O)N[C@H](C(=O)N[C@@H](CCC(=O)O)C(=O)N[C@@H](Cc1ccc(O)cc1)C(=O)N[C@@H](CC(C)C)C(=O)N[C@H](C(=O)N[C@@H](CCC(=O)O)C(=O)NCC(=O)NCC(N)=O)[C@@H](C)CC)[C@@H](C)CC) [Example 93] | 0.956 | 0.185 nM | 0.498 | 0.115 nM |
| YXEGTXTSDYSILLDKIAQXKFIEYLIEGG (Aib2; αMeF6; Aib20; K21((2-[2-(2-Amino-ethoxy)-ethoxy]-acetyl)2-(γ-Glu)-CO-(CH2)18-CO2H); C-terminal NH2) [Example 94] | 0.434 | 0.425 nM | 0.196 | 0.338 nM |
| Y[Aib]NGTFTSDYSILLDKK([AEEA-AEEA-γGlu-C20 diacid])AQ[Aib]AFIEYLIEGGPSSGAPPPS-NH2 (N-terminus assumed; SMILES CC[C@H](C)[C@H](NC(=O)[C@H](CC(C)C)NC(=O)[C@H](Cc1ccc(O)cc1)NC(=O)[C@H](CCC(=O)O)NC(=O)[C@@H](NC(=O)[C@H](Cc1ccccc1)NC(=O)[C@H](C)NC(=O)C(C)(C)NC(=O)[C@H](CCC(N)=O)NC(=O)[C@H](C)NC(=O)[C@H](CCCCNC(=O)COCCOCCNC(=O)COCCOCCNC(=O)CC[C@H](NC(=O)CCCCCCCCCCCCCCCCCCC(=O)O)C(=O)O)NC(=O)[C@H](CCCCN)NC(=O)[C@H](CC(=O)O)NC(=O)[C@H](CC(C)C)NC(=O)[C@H](CC(C)C)NC(=O)[C@@H](NC(=O)[C@H](CO)NC(=O)[C@H](Cc1ccc(O)cc1)NC(=O)[C@H](CC(=O)O)NC(=O)[C@H](CO)NC(=O)[C@@H](NC(=O)[C@H](Cc1ccccc1)NC(=O)[C@@H](NC(=O)CNC(=O)[C@H](CC(N)=O)NC(=O)C(C)(C)NC(=O)[C@@H](N)Cc1ccc(O)cc1)[C@@H](C)O)[C@@H](C)O)[C@@H](C)CC)[C@@H](C)CC)C(=O)N[C@@H](CCC(=O)O)C(=O)NCC(=O)NCC(=O)N1CCC[C@H]1C(=O)N[C@@H](CO)C(=O)N[C@@H](CO)C(=O)NCC(=O)N[C@@H](C)C(=O)N1CCC[C@H]1C(=O)N1CCC[C@H]1C(=O)N1CCC[C@H]1C(=O)N[C@@H](CO)C(N)=O) [Example 90] | 5.17 | 0.0361 nM | 0.11 | 0.532 nM |
| YXXGTFTSDYSILLDKKAQXAFIEYLIEGGPSSGAPPPS (Aib2; γ-Glu3; K17((2-[2-(2-Amino-ethoxy)-ethoxy]-acetyl)2-(γ-Glu)-CO-(CH2)18-CO2H); Aib20; C-terminal NH2) [Example 91] | 0.0103 | 19.2 nM | < 1.08e-05 | > 5000 nM |
| YXEGTXTSDVSIXLDXKAQXEFIXXLIEGGPSSGAPPPS (Aib2; αMeF(2F)6; αMeL13; Orn16; K17((2-[2-(2-Amino-ethoxy)-ethoxy]-acetyl)2-(γ-Glu)-CO-(CH2)16-CO2H); Aib20; D-Glu24; αMeY25; C-terminal NH2) [Example 5] | 6.27 | 0.0309 nM | 2.69 | 0.0164 nM |
| YXEGTXTSDYSILLDKKAQXAFIEYLIEGG (Aib2; αMeF6; K17((2-[2-(2-Amino-ethoxy)-ethoxy]-acetyl)2-(γ-Glu)-CO-(CH2)18-CO2H); Aib20; C-terminal NH2) [Example 98] | 2.43 | 0.0718 nM | 0.384 | 0.157 nM |
| Y[Aib]EGT[αMeF]TSDYSI[Aib]LDEK([AEEA-AEEA-γGlu-C20 diacid])AQ[Aib]AFIEYLIEGG-NH2 (N-terminus assumed; SMILES CC[C@H](C)[C@H](NC(=O)[C@H](CC(C)C)NC(=O)[C@H](Cc1ccc(O)cc1)NC(=O)[C@H](CCC(=O)O)NC(=O)[C@@H](NC(=O)[C@H](Cc1ccccc1)NC(=O)[C@H](C)NC(=O)C(C)(C)NC(=O)[C@H](CCC(N)=O)NC(=O)[C@H](C)NC(=O)[C@H](CCCCNC(=O)COCCOCCNC(=O)COCCOCCNC(=O)CC[C@H](NC(=O)CCCCCCCCCCCCCCCCCCC(=O)O)C(=O)O)NC(=O)[C@H](CCC(=O)O)NC(=O)[C@H](CC(=O)O)NC(=O)[C@H](CC(C)C)NC(=O)C(C)(C)NC(=O)[C@@H](NC(=O)[C@H](CO)NC(=O)[C@H](Cc1ccc(O)cc1)NC(=O)[C@H](CC(=O)O)NC(=O)[C@H](CO)NC(=O)[C@@H](NC(=O)[C@](C)(Cc1ccccc1)NC(=O)[C@@H](NC(=O)CNC(=O)[C@H](CCC(=O)O)NC(=O)C(C)(C)NC(=O)[C@@H](N)Cc1ccc(O)cc1)[C@@H](C)O)[C@@H](C)O)[C@@H](C)CC)[C@@H](C)CC)C(=O)N[C@@H](CCC(=O)O)C(=O)NCC(=O)NCC(N)=O) [Example 102] | 0.983 | 0.178 nM | 0.913 | 0.0628 nM |
| Y[Aib]EGT[αMeF]TSDK([AEEA-AEEA-γGlu-C20 diacid])SILLDKIAQ[Aib]AFIEYLIEGG-NH2 (N-terminus assumed; SMILES CC[C@H](C)[C@H](NC(=O)[C@H](CCCCN)NC(=O)[C@H](CC(=O)O)NC(=O)[C@H](CC(C)C)NC(=O)[C@H](CC(C)C)NC(=O)[C@@H](NC(=O)[C@H](CO)NC(=O)[C@H](CCCCNC(=O)COCCOCCNC(=O)COCCOCCNC(=O)CC[C@H](NC(=O)CCCCCCCCCCCCCCCCCCC(=O)O)C(=O)O)NC(=O)[C@H](CC(=O)O)NC(=O)[C@H](CO)NC(=O)[C@@H](NC(=O)[C@](C)(Cc1ccccc1)NC(=O)[C@@H](NC(=O)CNC(=O)[C@H](CCC(=O)O)NC(=O)C(C)(C)NC(=O)[C@@H](N)Cc1ccc(O)cc1)[C@@H](C)O)[C@@H](C)O)[C@@H](C)CC)C(=O)N[C@@H](C)C(=O)N[C@@H](CCC(N)=O)C(=O)NC(C)(C)C(=O)N[C@@H](C)C(=O)N[C@@H](Cc1ccccc1)C(=O)N[C@H](C(=O)N[C@@H](CCC(=O)O)C(=O)N[C@@H](Cc1ccc(O)cc1)C(=O)N[C@@H](CC(C)C)C(=O)N[C@H](C(=O)N[C@@H](CCC(=O)O)C(=O)NCC(=O)NCC(N)=O)[C@@H](C)CC)[C@@H](C)CC) [Example 92] | 0.546 | 0.338 nM | 0.258 | 0.257 nM |
